Numbered stars: 1 amine (or outer) side, 2 acyl side, 3 side chain; on linkers, the order of the positions; unused ones are H or OH. Bridge positions count the residues as written; N and C are the ends. Side chains are listed from the residue outwards. Ends that are not written are not given here. * marks the point of attachment. C20 diacid = O=C(O)CCCCCCCCCCCCCCCCCCC(=O)*; γGlu = O=C(O)[C@H](CCC(=O)[*:2])N[*:1]
What was measured:
[1] = molecular target: T1, human calcitonin receptor (human, UniProt P30988 25-474); assay: ratio of IC50 on human calcitonin receptor to IC50 on human amylin receptor (reference m42), SPA competition
T1 construct: whole, on cells; Membranes of stably transfected cells; also called hCTR; hCT
T1 sequence (looked up): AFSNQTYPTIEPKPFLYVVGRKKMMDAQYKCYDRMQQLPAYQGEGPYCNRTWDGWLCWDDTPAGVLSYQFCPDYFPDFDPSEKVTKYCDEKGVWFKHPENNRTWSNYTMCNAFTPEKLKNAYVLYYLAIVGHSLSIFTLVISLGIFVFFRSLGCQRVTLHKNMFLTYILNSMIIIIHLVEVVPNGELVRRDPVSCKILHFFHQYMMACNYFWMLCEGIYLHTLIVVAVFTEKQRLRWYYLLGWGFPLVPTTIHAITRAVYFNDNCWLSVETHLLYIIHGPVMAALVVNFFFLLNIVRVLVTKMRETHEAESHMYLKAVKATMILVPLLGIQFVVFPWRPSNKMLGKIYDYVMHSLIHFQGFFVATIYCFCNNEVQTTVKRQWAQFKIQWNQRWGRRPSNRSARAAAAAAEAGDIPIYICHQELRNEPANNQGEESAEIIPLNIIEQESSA
Method in brief: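 Competition binding by SPA uses membrane preparations (35 ng/μL final) in pH 7.4 Hepes buffer with 1 mM CaCl2 and 5 mM MgCl₂. Incubation lasts 120 min at 25° C, and IC₅₀ comes from one-site fitting.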

[2] = molecular target: T2, rat amylin receptor (rat calcitonin receptor + rat RAMP 3) (rat, UniProt P32214 25-516; Q9JJ73 23-147); assay: SPA competition with 125I-rat amylin on membranes of BHK tk'ts 13 cells with rat calcitonin receptor + rat RAMP3 (Assay VI)
T2 construct: whole, on cells; Membranes of transiently transfected BHK tk'ts 13 cells; also called rAmylin-R; rat amylin 3(a) receptor
T2 sequence (looked up) 1: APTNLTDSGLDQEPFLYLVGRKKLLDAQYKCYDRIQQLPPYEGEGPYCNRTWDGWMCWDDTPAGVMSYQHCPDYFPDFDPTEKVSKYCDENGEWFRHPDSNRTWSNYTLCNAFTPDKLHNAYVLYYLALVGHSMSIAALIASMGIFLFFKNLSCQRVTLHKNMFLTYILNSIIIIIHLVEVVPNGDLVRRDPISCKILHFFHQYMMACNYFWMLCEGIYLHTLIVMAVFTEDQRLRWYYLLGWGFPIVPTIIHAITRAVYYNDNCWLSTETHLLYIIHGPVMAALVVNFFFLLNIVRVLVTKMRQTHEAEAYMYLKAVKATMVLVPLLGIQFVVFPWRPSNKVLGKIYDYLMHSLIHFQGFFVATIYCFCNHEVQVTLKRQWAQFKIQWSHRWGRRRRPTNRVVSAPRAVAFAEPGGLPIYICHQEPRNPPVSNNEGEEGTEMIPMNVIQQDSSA
T2 sequence (looked up) 2: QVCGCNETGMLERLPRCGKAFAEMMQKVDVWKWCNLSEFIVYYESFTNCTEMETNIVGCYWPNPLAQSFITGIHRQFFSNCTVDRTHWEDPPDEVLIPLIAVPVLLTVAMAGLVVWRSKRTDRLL

[3] = molecular target: T3, rat calcitonin receptor (rat, UniProt P32214 25-516); assay: ratio of IC50 on rat calcitonin receptor to IC50 on rat amylin receptor (reference m40)
T3 construct: whole, on cells; Membranes of transiently transfected BHK tk'ts 13 cells; also called rCTR; rat calcitonin (a) receptor
T3 sequence (looked up): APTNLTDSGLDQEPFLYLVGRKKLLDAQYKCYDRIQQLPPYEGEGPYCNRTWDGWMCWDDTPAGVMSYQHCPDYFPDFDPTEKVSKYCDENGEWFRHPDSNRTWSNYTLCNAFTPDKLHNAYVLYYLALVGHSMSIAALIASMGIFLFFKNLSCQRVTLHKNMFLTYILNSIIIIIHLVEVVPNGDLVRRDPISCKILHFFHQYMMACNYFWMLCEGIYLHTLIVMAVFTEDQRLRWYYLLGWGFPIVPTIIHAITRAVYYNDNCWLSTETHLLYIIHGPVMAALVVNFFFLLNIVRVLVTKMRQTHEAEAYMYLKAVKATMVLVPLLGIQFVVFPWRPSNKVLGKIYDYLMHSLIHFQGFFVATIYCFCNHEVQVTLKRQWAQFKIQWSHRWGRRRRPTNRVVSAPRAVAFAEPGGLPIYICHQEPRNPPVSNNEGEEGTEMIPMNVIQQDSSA

[4] = molecular target: T3, rat calcitonin receptor; assay: SPA competition with 125I-calcitonin on membranes of BHK tk'ts 13 cells with rat calcitonin receptor (Assay VIII)

Binder	Ratio hCT/hAmylin binding [1]	IC50 [2] [nM]	Ratio rCT/rAmylin binding [3]	IC50 [4] [nM]
K([γGlu-C20 diacid])CNTATCATQRLADFLRHSSPNFGAIPSSTNVGPRTY-NH2 (disulfide 2-7; N-terminus assumed; SMILES CC[C@H](C)[C@H](NC(=O)[C@H](C)NC(=O)CNC(=O)[C@H](Cc1ccccc1)NC(=O)[C@H](CC(N)=O)NC(=O)[C@@H]1CCCN1C(=O)[C@H](CO)NC(=O)[C@H](CO)NC(=O)[C@H](Cc1c[nH]cn1)NC(=O)[C@H](CCCNC(=N)N)NC(=O)[C@H](CC(C)C)NC(=O)[C@H](Cc1ccccc1)NC(=O)[C@H](CC(=O)O)NC(=O)[C@H](C)NC(=O)[C@H](CC(C)C)NC(=O)[C@H](CCCNC(=N)N)NC(=O)[C@H](CCC(N)=O)NC(=O)[C@@H](NC(=O)[C@H](C)NC(=O)[C@@H]1CSSC[C@H](NC(=O)[C@@H](N)CCCCNC(=O)CC[C@H](NC(=O)CCCCCCCCCCCCCCCCCCC(=O)O)C(=O)O)C(=O)N[C@@H](CC(N)=O)C(=O)N[C@@H]([C@@H](C)O)C(=O)N[C@@H](C)C(=O)N[C@@H]([C@@H](C)O)C(=O)N1)[C@@H](C)O)C(=O)N1CCC[C@H]1C(=O)N[C@@H](CO)C(=O)N[C@@H](CO)C(=O)N[C@H](C(=O)N[C@@H](CC(N)=O)C(=O)N[C@H](C(=O)NCC(=O)N1CCC[C@H]1C(=O)N[C@@H](CCCNC(=N)N)C(=O)N[C@H](C(=O)N[C@@H](Cc1ccc(O)cc1)C(N)=O)[C@@H](C)O)C(C)C)[C@@H](C)O, Synthetic acylated analogue of human amylin)	151	0.504	116	58.5
K([γGlu-C20 diacid])CNTATCATQRLADFLRHSSPNFGAIPSSTNVGPETY-NH2 (disulfide 2-7; N-terminus assumed; SMILES CC[C@H](C)[C@H](NC(=O)[C@H](C)NC(=O)CNC(=O)[C@H](Cc1ccccc1)NC(=O)[C@H](CC(N)=O)NC(=O)[C@@H]1CCCN1C(=O)[C@H](CO)NC(=O)[C@H](CO)NC(=O)[C@H](Cc1c[nH]cn1)NC(=O)[C@H](CCCNC(=N)N)NC(=O)[C@H](CC(C)C)NC(=O)[C@H](Cc1ccccc1)NC(=O)[C@H](CC(=O)O)NC(=O)[C@H](C)NC(=O)[C@H](CC(C)C)NC(=O)[C@H](CCCNC(=N)N)NC(=O)[C@H](CCC(N)=O)NC(=O)[C@@H](NC(=O)[C@H](C)NC(=O)[C@@H]1CSSC[C@H](NC(=O)[C@@H](N)CCCCNC(=O)CC[C@H](NC(=O)CCCCCCCCCCCCCCCCCCC(=O)O)C(=O)O)C(=O)N[C@@H](CC(N)=O)C(=O)N[C@@H]([C@@H](C)O)C(=O)N[C@@H](C)C(=O)N[C@@H]([C@@H](C)O)C(=O)N1)[C@@H](C)O)C(=O)N1CCC[C@H]1C(=O)N[C@@H](CO)C(=O)N[C@@H](CO)C(=O)N[C@H](C(=O)N[C@@H](CC(N)=O)C(=O)N[C@H](C(=O)NCC(=O)N1CCC[C@H]1C(=O)N[C@@H](CCC(=O)O)C(=O)N[C@H](C(=O)N[C@@H](Cc1ccc(O)cc1)C(N)=O)[C@@H](C)O)C(C)C)[C@@H](C)O, Synthetic acylated analogue of human amylin)	16.7	0.3	62	18.6
K([γGlu-C20 diacid])CNTATCATQRLAEFLRHSSPNFGAIPSSTNVGSHTY-NH2 (disulfide 2-7; N-terminus assumed; SMILES CC[C@H](C)[C@H](NC(=O)[C@H](C)NC(=O)CNC(=O)[C@H](Cc1ccccc1)NC(=O)[C@H](CC(N)=O)NC(=O)[C@@H]1CCCN1C(=O)[C@H](CO)NC(=O)[C@H](CO)NC(=O)[C@H](Cc1c[nH]cn1)NC(=O)[C@H](CCCNC(=N)N)NC(=O)[C@H](CC(C)C)NC(=O)[C@H](Cc1ccccc1)NC(=O)[C@H](CCC(=O)O)NC(=O)[C@H](C)NC(=O)[C@H](CC(C)C)NC(=O)[C@H](CCCNC(=N)N)NC(=O)[C@H](CCC(N)=O)NC(=O)[C@@H](NC(=O)[C@H](C)NC(=O)[C@@H]1CSSC[C@H](NC(=O)[C@@H](N)CCCCNC(=O)CC[C@H](NC(=O)CCCCCCCCCCCCCCCCCCC(=O)O)C(=O)O)C(=O)N[C@@H](CC(N)=O)C(=O)N[C@@H]([C@@H](C)O)C(=O)N[C@@H](C)C(=O)N[C@@H]([C@@H](C)O)C(=O)N1)[C@@H](C)O)C(=O)N1CCC[C@H]1C(=O)N[C@@H](CO)C(=O)N[C@@H](CO)C(=O)N[C@H](C(=O)N[C@@H](CC(N)=O)C(=O)N[C@H](C(=O)NCC(=O)N[C@@H](CO)C(=O)N[C@@H](Cc1c[nH]cn1)C(=O)N[C@H](C(=O)N[C@@H](Cc1ccc(O)cc1)C(N)=O)[C@@H](C)O)C(C)C)[C@@H](C)O, Synthetic acylated analogue of human amylin)	26.4	1.16	22.7	26.3
K([γGlu-C20 diacid])CNTATCATQRLAEFLRHSSPNFGAIPSSTNVGHETY-NH2 (disulfide 2-7; N-terminus assumed; SMILES CC[C@H](C)[C@H](NC(=O)[C@H](C)NC(=O)CNC(=O)[C@H](Cc1ccccc1)NC(=O)[C@H](CC(N)=O)NC(=O)[C@@H]1CCCN1C(=O)[C@H](CO)NC(=O)[C@H](CO)NC(=O)[C@H](Cc1c[nH]cn1)NC(=O)[C@H](CCCNC(=N)N)NC(=O)[C@H](CC(C)C)NC(=O)[C@H](Cc1ccccc1)NC(=O)[C@H](CCC(=O)O)NC(=O)[C@H](C)NC(=O)[C@H](CC(C)C)NC(=O)[C@H](CCCNC(=N)N)NC(=O)[C@H](CCC(N)=O)NC(=O)[C@@H](NC(=O)[C@H](C)NC(=O)[C@@H]1CSSC[C@H](NC(=O)[C@@H](N)CCCCNC(=O)CC[C@H](NC(=O)CCCCCCCCCCCCCCCCCCC(=O)O)C(=O)O)C(=O)N[C@@H](CC(N)=O)C(=O)N[C@@H]([C@@H](C)O)C(=O)N[C@@H](C)C(=O)N[C@@H]([C@@H](C)O)C(=O)N1)[C@@H](C)O)C(=O)N1CCC[C@H]1C(=O)N[C@@H](CO)C(=O)N[C@@H](CO)C(=O)N[C@H](C(=O)N[C@@H](CC(N)=O)C(=O)N[C@H](C(=O)NCC(=O)N[C@@H](Cc1c[nH]cn1)C(=O)N[C@@H](CCC(=O)O)C(=O)N[C@H](C(=O)N[C@@H](Cc1ccc(O)cc1)C(N)=O)[C@@H](C)O)C(C)C)[C@@H](C)O, Synthetic acylated analogue of human amylin; also called compound 107)	11.1	0.958	34.6	33.1
K([γGlu-C20 diacid])CNTATCATQRLAEFLRHSSPNFGAIPSSTNVGRETY-NH2 (disulfide 2-7; N-terminus assumed; SMILES CC[C@H](C)[C@H](NC(=O)[C@H](C)NC(=O)CNC(=O)[C@H](Cc1ccccc1)NC(=O)[C@H](CC(N)=O)NC(=O)[C@@H]1CCCN1C(=O)[C@H](CO)NC(=O)[C@H](CO)NC(=O)[C@H](Cc1c[nH]cn1)NC(=O)[C@H](CCCNC(=N)N)NC(=O)[C@H](CC(C)C)NC(=O)[C@H](Cc1ccccc1)NC(=O)[C@H](CCC(=O)O)NC(=O)[C@H](C)NC(=O)[C@H](CC(C)C)NC(=O)[C@H](CCCNC(=N)N)NC(=O)[C@H](CCC(N)=O)NC(=O)[C@@H](NC(=O)[C@H](C)NC(=O)[C@@H]1CSSC[C@H](NC(=O)[C@@H](N)CCCCNC(=O)CC[C@H](NC(=O)CCCCCCCCCCCCCCCCCCC(=O)O)C(=O)O)C(=O)N[C@@H](CC(N)=O)C(=O)N[C@@H]([C@@H](C)O)C(=O)N[C@@H](C)C(=O)N[C@@H]([C@@H](C)O)C(=O)N1)[C@@H](C)O)C(=O)N1CCC[C@H]1C(=O)N[C@@H](CO)C(=O)N[C@@H](CO)C(=O)N[C@H](C(=O)N[C@@H](CC(N)=O)C(=O)N[C@H](C(=O)NCC(=O)N[C@@H](CCCNC(=N)N)C(=O)N[C@@H](CCC(=O)O)C(=O)N[C@H](C(=O)N[C@@H](Cc1ccc(O)cc1)C(N)=O)[C@@H](C)O)C(C)C)[C@@H](C)O, Synthetic acylated analogue of human amylin)	28.5	1.06	81.1	86.1

— patent publication US20140087995A1 (published 2014)
